Several values for one entry are separate records, joined by “and”; a condition that tells them apart may be missing. Equal values may be shown once.
Key:
[1] = biological target: T1, Rhesus D antigen on RhD-positive human red blood cells (human, UniProt Q02161 2-417); assay: cell-based or functional assay
T1 sequence (looked up): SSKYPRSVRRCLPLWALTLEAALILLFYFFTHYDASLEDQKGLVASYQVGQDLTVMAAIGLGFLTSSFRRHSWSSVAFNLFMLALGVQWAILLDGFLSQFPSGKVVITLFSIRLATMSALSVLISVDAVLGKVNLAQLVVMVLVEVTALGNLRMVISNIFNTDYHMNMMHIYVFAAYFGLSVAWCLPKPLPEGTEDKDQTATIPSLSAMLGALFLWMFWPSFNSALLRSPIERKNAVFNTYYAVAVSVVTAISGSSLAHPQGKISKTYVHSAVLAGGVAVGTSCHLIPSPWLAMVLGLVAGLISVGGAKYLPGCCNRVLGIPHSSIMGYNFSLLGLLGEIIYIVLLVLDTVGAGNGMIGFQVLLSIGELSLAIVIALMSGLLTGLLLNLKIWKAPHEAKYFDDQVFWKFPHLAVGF

[2] = biological target: T1, Rhesus D antigen on RhD-positive human …; assay: hemagglutination of bromelain-treated RhD-positive erythrocytes, Technicon Autoanalyzer, against the NIBSC polyclonal standard
Description: Briefly, bromelain-treated RhD positive red cells are incubated with various concentrations of anti-RhD antibodies. The cells are allowed to agglutinate over a period of time. The agglutinated cells are removed in the autoanalyzer and the rest of the erythrocytes are lysed using detergent. The optical density of the released hemoglobin is measured spectrophotometrically. The anti-D concentrations of the samples are calculated using a standard graph obtained from various concentrations of the Anti-D standard.

B1: anti-RhD monoclonal antibody RhD3 (antibody, human IgG3, kappa, V domains shown)
VH: QVTLKESGPVLVKPTETLTLTCTVSGFSLNNARMGVSWIRQPPGKALEWLAHIFSNDEKSYSTSLKSRLTISKDTSKSQVFLTMTNMDPVDTATYYCARTPITMVRGAIRLYYYYYMDVWGKGTTVTVSS
VL: DIQVTQSPSSLSASVGDRVTINCRASQSIGTYLNWYQQKPGKAPNLLIYAASSLQSGVPSRFSGSGSGTDFTLTISSLQPEDFATYYCQQTYSTPTWTFGRGTKVEIKR
**Q.** With B1 as the binder, how does the “ADCC EC50 (ng of Active Ab/ml), Average” value [1] read?
**A.** 0.3 ng of Active Ab/ml and 0.2 ng of Active Ab/ml

**Q.** What about the “ADCC EC50 (ng of Active Ab/ml), Experiment 1” value (from here on “ADCC EC50 … Experiment 1”) [1] of the same binder?
**A.** 0.2 ng of Active Ab/ml and 0.1 ng of Active Ab/ml

**Q.** And the “ADCC EC50 (ng of Active Ab/ml), Experiment 2” value (“ADCC EC50 … Experiment 2” for short) [1]?
**A.** 0.3 ng of Active Ab/ml and 0.2 ng of Active Ab/ml

B2: anti-RhD monoclonal antibody RhD1 (antibody, human IgG1, lambda)
heavy: not shown
light: QSALTQPASVSGSPGQSITISCSGSSSDVGGYKYVSWYQQHPGKAPQLMIYDVNNRPSGVSNRFSGSKSGNTASLTISGLQAEDEADYYCSSYTSSSTRVFGGGTKLTVLGQPKAAPSVTLFPPSSEELQANKATLVCLISDFYPGAVTVAWKADSSPVKAGVETTTPSKQSNNKYAASSYLSLTPEQWKSHKSYSCQVTHEGSTVEKTVAPTECS
**Q.** For B2, which “ADCC EC50 (ng of Active Ab/ml), Average” value [1] is on record?
**A.** 1.1 ng of Active Ab/ml and 0.7 ng of Active Ab/ml

**Q.** What about the “ADCC EC50 … Experiment 1” value [1] of the same binder?
**A.** 0.7 ng of Active Ab/ml and 0.4 ng of Active Ab/ml

**Q.** And the “ADCC EC50 … Experiment 2” value [1]?
**A.** 1.5 ng of Active Ab/ml and 0.9 ng of Active Ab/ml

B3: RhD4 (IgG3 variant of RhD1: RhD1V3C heavy chain and RhD1 light chain) (antibody)
heavy: QVQLVQSGAEVKKPGSSVKVSCKASGGIFRTYAISWVRQAPGQGLEWMGGIIPMFGTVNYAQKFQGRVTISADKSTSTAYMELSRLRSEDTAVYYCARPPSGGCGGDCSRRGYYYAMDVWGQGTTITVSSASTKGPSVFPLAPCSRSTSGGTAALGCLVKDYFPEPVTVSWNSGALTSGVHTFPAVLQSSGLYSLSSVVTVPSSSLGTQTYTCNVNHKPSNTKVDKRVELKTPLGDTTHTCPRCPEPKSCDTPPPCPRCPEPKSCDTPPPCPRCPEPKSCDTPPPCPRCPAPELLGGPSVFLFPPKPKDTLMISRTPEVTCVVVDVSHEDPEVQFKWYVDGVEVHNAKTKPREEQFNSTFRVVSVLTVLHQDWLNGKEYKCKVSNKALPAPIEKTISKTKGQPREPQVYTLPPSREEMTKNQVSLTCLVKGFYPSDIAVEWESSGQPENNYNTTPPMLDSDGSFFLYSKLTVDKSRWQQGNIFSCSVMHEALHNRFTQKSLSLSPGK
light: QSALTQPASVSGSPGQSITISCSGSSSDVGGYKYVSWYQQHPGKAPQLMIYDVNNRPSGVSNRFSGSKSGNTASLTISGLQAEDEADYYCSSYTSSSTRVFGGGTKLTVLGQPKAAPSVTLFPPSSEELQANKATLVCLISDFYPGAVTVAWKADSSPVKAGVETTTPSKQSNNKYAASSYLSLTPEQWKSHKSYSCQVTHEGSTVEKTVAPTECS
notes: IgG3, lambda chimera; The limits were converted from the nucleotide limits: variable region nt 58-448, constant region from nt 449; The NheI site was made by silent mutations only
**Q.** How did the “Agglutination Titer (µg of Active Ab per mg of Protein)” value [2] turn out when B3 was run?
**A.** 303 µg of Active Ab per mg of Protein

**Q.** What about the “ADCC EC50 (ng of Active Ab/ml), Average” value [1] of the same binder?
**A.** 0.3 ng of Active Ab/ml

**Q.** And the “ADCC EC50 … Experiment 1” value [1]?
**A.** 0.1 ng of Active Ab/ml

**Q.** And the “ADCC EC50 … Experiment 2” value [1]?
**A.** 0.5 ng of Active Ab/ml

From patent US20120027769A1 (BHARAT SERUMS AND VACCINES, published 2012)
